The text below walks through data of publication PMC4853038.

A short description of series [1]: co-transfection of WT and mutant, 293T-EmGFP syncytia. As to conditions: glycan lost; control: WT syncytin-2 plus empty vector.
The nature of series [2]: Western blot of 293T-EmGFP lysates. As to conditions: glycan lost; control: wild type.
Series [3] is described as follows: syncytia formation in 293T-EmGFP cells, 36 h. As to conditions: glycan lost; control: wild type.

For the substance syncytin-2: N133Q, the “other: fusogenic activity of co-expressed wild type” value in series [1] is “decreases”. Moreover, the expression_or_secretion result in series [2] was “no change”.

In the case of syncytin-2: N220Q, the “other: fusogenic activity, other: fusion score (−, +, ++)” value (“other: fusogenic activity, other” below) in series [3] is given as “no change”. In series [2], the expression_or_secretion result is “no change”.

Consider syncytin-2: N146Q, for which the “other: fusogenic activity, other” value in series [3] is reported as “no change”. Also, the expression_or_secretion result in series [2] is recorded as “no change”.

As for syncytin-2: N247Q, the “other: fusogenic activity, other” value in series [3] is recorded as “no change”. In addition, the expression_or_secretion result in series [2] was “no change”.

On to syncytin-2: N332Q, for which the “other: fusogenic activity, other” value in series [3] is on record as “increases”. Further, the expression_or_secretion entry in series [2] was “no change”.

On to syncytin-2: N241Q, for which the “other: fusogenic activity, other” value in series [3] is given as “no change”. The expression_or_secretion entry in series [2] is “no change”.

As to syncytin-2: N443Q, in series [1], the “other: fusogenic activity of co-expressed wild type” value was “decreases”. In series [2], the expression_or_secretion result is “no change”.

Regarding syncytin-2: N177Q, the “other: fusogenic activity, other” value in series [3] was “no change”. Also, the expression_or_secretion result in series [2] is given as “no change”.
